{"source": "patent CN113336845A", "about": "(LANZHOU VETERINARY RES INST CAAS, dated 2021)", "binders": {"B1": {"name": "猪繁殖与呼吸综合征病毒核衣壳蛋白的猪源单个B细胞抗体C8 (antibody, V domains shown)", "VH": "GLVQPGGSLRLSCVASGFTFSSYIVTWVRQSPGKGLEWLAGTGVGEYALYYRNSVRGRFTLSRDNSQNTAYLQMNSLRVEETGRYFCRRGAAESVDLWGPGVEVVVSS", "VL": "QEPAMSVSLGGTVTLTCAFSSGSVTRSHWPSWFQLTPGQPPRTLIVSTDSRPTGVPSRFSGAISGYKAALTITGAQPEDEADYVCGVYFTFTKRPFGGGTHLTVLG", "notes": "also called C8单抗; 单克隆抗体C8"}}, "molecular_target": "T1, 融合蛋白3AN (FMDV 3A epitope fused to PRRSV N protein)", "T1 construct": "also called 3AN融合蛋白; 3AN蛋白抗原", "assay": "ELISA, biotin-labelled C8 detects 3AN captured by 3A24"}
{"binder": "B1", "values": [{"measurement": "binding result", "value": "binds"}]}
